B1: porcine heart L-lactate dehydrogenase (enzyme)
chain: not shown
notes: L-lactate dehydrogenase from porcine heart (phLDH), tetramer; also called phLDH; PhLDH
B2: baker's yeast D-glyceraldehyde-3-phosphate dehydrogenase (enzyme)
chain: VRVAINGFGRIGRLVMRIALSRPNVEVVALNDPFITNDYAAYMFKYDSTHGRYAGEVSHDDKHIIVDGKKIATYQERDPANLPWGSSNVDIAIDSTGVFKELDTAQKHIDAGAKKVVITAPSSTAPMFVMGVNEEKYTSDLKIVSNASCTTNCLAPLAKVINDAFGIEEGLMTTVHSLTATQKTVDGPSHKDWRGGRTASGNIIPSSTGAAKAVGKVLPELQGKLTGMAFRVPTVDVSVVDLTVKLNKETTYDEIKKVVKAAAEGKLKGVLGYTEDAVVSSDFLGDSHSSIFDASAGIQLSPKFVKLVSWYDNEYGYSTRVVDLVEHVAKA
modifications: Homotetramer, apo-enzyme preparation from yeast (NADH added in the binding assays). The isozyme is taken as TDH3 because the cited PDB 3PYM is GAPDH 3. The natural preparation may contain minor …

Experiments:
[1] = target: B2; assay: cell-based or functional assay
[2] = target: T1, rabbit muscle D-glyceraldehyde-3-phosphate dehydrogenase (rabbit, UniProt P46406 2-333); assay: cell-based or functional assay
[3] = target: B2; assay: cell-based or functional assay; remark: listed apart in the source
[4] = target: T1, rabbit muscle …; assay: cell-based or functional assay; remark: listed apart in the source
[5] = target: the molecule itself; assay: AUC; sedimentation velocity of each enzyme alone at 6 μM; scans at 280 nm, 7 hours at 40,000 x g; SEDFIT with s and Mr as free fit parameters; Mr compared with the mass calculated from the sequence
[6] = target: B1; assay: AUC; sedimentation velocity of a mixture of phLDH and byGAPDH, each 6 μM; 50 mM Tris/HCl, pH = 7.2, 1 mM EDTA, 0.5 mM DTT; scans at 280 nm, 7 hours at 40,000 x g; fit with SEDFIT to a one-component model and compared with a Claverie simulation of 10% association; settings: both partners purified

T1 sequence (P46406 2-333): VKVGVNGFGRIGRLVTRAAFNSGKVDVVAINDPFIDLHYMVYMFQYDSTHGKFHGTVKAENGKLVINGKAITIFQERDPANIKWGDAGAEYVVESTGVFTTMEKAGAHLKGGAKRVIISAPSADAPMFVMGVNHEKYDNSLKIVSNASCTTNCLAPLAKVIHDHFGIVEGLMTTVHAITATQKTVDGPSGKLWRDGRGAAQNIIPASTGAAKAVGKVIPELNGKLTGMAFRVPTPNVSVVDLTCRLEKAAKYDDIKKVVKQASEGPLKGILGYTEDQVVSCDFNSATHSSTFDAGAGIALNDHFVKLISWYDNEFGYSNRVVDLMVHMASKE

| Binder | apparent KM of phLDH with byGAPDH-NADH complex as substrate (630 μM pyruvate) [1] [µM] | apparent KM of phLDH with rmGAPDH-NADH complex as substrate (630 μM pyruvate) [2] [µM] | ratio between measured phLDH activity and the calculated free-diffusion activity; 40 μM NADH, byGAPDH 240 to 480 μM of NADH binding sites; ratio rises from 3.5 to 6.1 fold [3] [fold] | ratio between measured phLDH activity and the calculated free-diffusion activity; byGAPDH fixed at 480 μM NADH binding sites, NADH decreased from 40 to 10 μM; ratio rises from 5.2 to 6.6 fold [3] [fold] | ratio between measured phLDH activity and the calculated free-diffusion activity; 40 μM NADH, rmGAPDH 100 to 240 μM of NADH binding sites; ratio rises from 1.3 to 2.0 fold [4] [fold] | ratio between measured phLDH activity and the calculated free-diffusion activity; rmGAPDH fixed at 200 μM NADH binding sites, NADH decreased from 40 to 10 μM; ratio rises from 1.7 to 2.28 fold [4] [fold] | binding result [5] | Kd [6] [µM] |
| --- | --- | --- | --- | --- | --- | --- | --- | --- |
| B1 | 116 | 59.6 | 6.1 | 6.6 | 2 | 2.28 | binds | – |
| B2 | – | – | – | – | – | – | – | ≥ 48.6 |
